This is an account of results in patent US20260209387A1, “SINGLE-DOMAIN ANTIBODY FOR INHIBITION OF NEUTROPHIL ELASTASE ACTIVITY” (UNIVERSITE DE LIEGE, priority 2023, published 2026).

For series [1], the target named is T1, proteolytic activity of COPD patient sputum (Homo sapiens, UniProt P08246).
T1 construct: Sputa from patients with cystic fibrosis, COPD or ciliary diskenisia above 18 years old were collected; from tissue; host or cells: expectorated sputum of patients with cystic fibrosis, COPD or ciliary dyskinesia
T1 sequence (P08246 30-267): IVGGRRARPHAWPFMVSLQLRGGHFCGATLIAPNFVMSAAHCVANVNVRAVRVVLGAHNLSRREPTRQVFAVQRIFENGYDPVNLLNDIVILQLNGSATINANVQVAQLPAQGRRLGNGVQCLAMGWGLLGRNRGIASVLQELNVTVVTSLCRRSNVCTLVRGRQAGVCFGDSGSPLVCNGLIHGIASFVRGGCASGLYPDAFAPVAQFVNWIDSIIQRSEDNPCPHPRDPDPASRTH
Kind of series: Sputum proteolytic activity inhibition, COPD sputum. The series is classed as biochemical. The note with it: 15 mg sputum, COPD patient in exacerbation. Here is the method: (§1) 2.2.2 Evaluation of the proteolytic activity inhibition in CF, COPD and ciliary diskenisia sputa. […] Sputa collection procedures were evaluated by the local ethic committee (comité d'Ethique Hospitalo-Facultaire des Cliniques universitaires Saint-Luc) and approved under the Belgian registration number B4032021000071.
(§2) Sputum proteolytic activity was assessed by following with a spectrophotometer the absorbance at 410 nm of suc-Ala-Ala-Pro-Val-pNA degradation, the chromogenic hNE substrate. Sputa were classified as mucoid, muco-purulent or purulent (Serisier et al., 2009, Respir Res, 10 (1): 63. doi: 10.1186/1465-9921-10-6). According to the experiment, 10 to 20 mg of sputum were weighted in a 96-well plate. ISVDs were then added to the sputum samples and pre-incubated at 37° C. during different periods of time. The hNE substrate was diluted to a concentration of 1 mM in a tris buffer (0.1M tris, 0.5M NaCl, 0.01% Sodium azide (NaN3), pH 7.5) and 50 μl of this solution were added to the wells. The substrate degradation was followed during 50 min. […] Slopes were then calculated from the regression line drawn from the absorbance measurements and were expressed as a percentage of the sputum proteolytic activity without ISVDs.

The target in series [2] is T2, proteolytic activity of ciliary dyskinesia patient sputum (Homo sapiens, UniProt P08246).
T2 construct: Sputa from patients with cystic fibrosis, COPD or ciliary diskenisia above 18 years old were collected; from tissue; host or cells: expectorated sputum of patients with cystic fibrosis, COPD or ciliary dyskinesia
T2 sequence (P08246 30-267): T1 sequence (P08246 30-267)
Kind of series: Sputum proteolytic activity inhibition, ciliary dyskinesia sputum. The format is biochemical. The note with it: 10 mg sputum. Here is the method:
as §1, §2

For series [3], the target named is T3, proteolytic (elastase) activity of cystic fibrosis patient sputa (Homo sapiens, UniProt P08246).
T3 construct: Sputa from patients with cystic fibrosis, COPD or ciliary diskenisia above 18 years old were collected; from tissue; host or cells: expectorated sputum of patients with cystic fibrosis, COPD or ciliary dyskinesia
T3 sequence (P08246 30-267): T1 sequence (P08246 30-267)
As to the kind of experiment: Sputum proteolytic activity inhibition, cystic fibrosis sputa. The format is biochemical. Here is the method:
as §1, §2

A short description of series [4]: Pharmacokinetic study, intratracheal instillation, BAL content by ELISA. The format is in vivo, mice. Here is the method:
2.5.1. Instillation of mice and collection of BAL. […] Broncho-alveolar lavages (BAL), nasal lavages (NAL), blood samples, and lungs were collected 0, 4 or 24 h after instillation. BAL and NAL were collected with 2 ml and 1 ml of Hanks' Balanced Salt Solution (HBSS) buffer respectively. Cells were discarded from BAL and NAL samples via a 5 min centrifugation at 300 g and supernatants were stored at −20° C. Lungs were collected in 0.5 ml of HBSS buffer, ground (Precellys evolution, Bertin Technologies, Montigny-le-bretonneux, France) and centrifuged at 300 g for 15 min. Supernatants were stored at −20° C. Blood was collected by intra-cardiac puncture and stored in anti-coagulant tubes (Microvette®) 500, K3 EDTA, VWR) at −20° C. All samples were treated with an anti-protease cocktail (Roche).
2.5.2. ELISA analysis. ISVD and AAT content in the BALs collected in vivo were measured by a sandwich ELISA method. An ELISA conversion pack from Meso scale Discovery (Rockville, USA) was used for ISVD analysis, according to the manufacturer instructions. Uncoated Mesoscale compatible plates were coated with an anti-histag antibody (BioLegend, San Diego, USA). ISVDs were then detected with an anti-VHH antibody (Jackson ImmunoResearch, Ely, UK) mixed with an anti-goat Sulfo-TAG labelled antibody (Meso scale Discovery) and the signal was read with an MESO QuickPlex SQ 120 MM (Meso scale Discovery). AAT content in the samples was measured by a commercial ELISA kit (Human Serpin Al DuoSet ELISA, R&D system, Mineapolis, USA) according to manufacturer instructions.
On the technique in general: ELISA stands for enzyme-linked immunosorbent assay.

Series [5] has as its target T4, hNE (Homo sapiens, UniProt P08246).
T4 construct: purchased Elastin Products Company (EPC)
T4 sequence (P08246 30-247): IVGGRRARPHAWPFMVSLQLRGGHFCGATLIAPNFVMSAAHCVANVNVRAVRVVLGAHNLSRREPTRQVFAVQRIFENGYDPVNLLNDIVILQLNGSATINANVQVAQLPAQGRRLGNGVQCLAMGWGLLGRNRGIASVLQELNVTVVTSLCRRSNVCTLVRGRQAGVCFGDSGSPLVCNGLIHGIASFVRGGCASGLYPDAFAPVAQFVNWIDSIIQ
Kind of series: hNE inhibitory capacity after physical stress. The note with it: hNE: Nb molar ratio 1:1, compared to unexposed ISVD. The series is classed as biochemical. Here is the method: 2.2.1 Evaluation of the proteolytic activity inhibition on purified hNE. hNE activity was assessed by following the degradation of a chromogenic hNE substrate, N-succinyl-alanine-alanine-proline-valine-p-nitroanilide (suc-Ala-Ala-Pro-Val-pNA, Elastin products, Owensville, Missouri, USA), measuring the absorbance at 410 nm with a spectrophotometer (Spectramax ID5, Molecular Devices, San Jose, USA). The substrate was diluted to a concentration of 1.5 mM in a tris buffer (0.1M tris, 0.5M NaCl, 0.01% NaN3, pH 7.5) and 200 μl of this solution were added to the wells of a 96-well plate and heated at 37° C. Purified hNE (Elastin products) was reconstituted on ice in a 0.05M Sodium acetate (NaOAc), 0.1M NaCl buffer at pH5 to a concentration of 0.1 mg/ml. 10 μl of this hNE solution were added per well and the substrate degradation was followed during 20 min to verify the hNE activity in the wells. ISVDswere then added to the wells at the desired hNE: ISVD ratio, and the substrate degradation was then followed during 50 min. Slopes were calculated from the regression line drawn from the absorbance measurements and were expressed as a percentage of the hNE activity without ISVDs. […]

B1: NbE201: anti-hNE ISVD (VHH/nanobody) from immunized lama, amino acid sequence SEQ ID NO: 4 (protein)
VHH: QVQLQESGGGLVQAGGSLRLSCVVPGRTISLYRMGWFRQAPGKEREFVAGINWSGDMTDYVDSVKGRFTISRDNAKNTVYLEMNSLKPEDTAIYYCTADPKLLPLADSSYGYWGQGTQVTVSS
B1: the “inhibitory capacity in COPD sputum” value in series [1] is given as “No apparent differences in inhibitory capacity”. In addition, in series [2], the “inhibitory capacity in ciliary dyskinesia sputum” value is “No apparent differences in inhibitory capacity”. The “inhibition of proteolytic activity in sputum samples ex vivo” value in series [3] (cystic fibrosis sputa) is listed as “able to inhibit the proteolytic activity in sputum samples ex vivo”. Besides, the “sputum inhibition capacity over time” value in series [3] (exposure 0 to 24 h) was “a loss of inhibitory capacity over time was observed”. For the same molecule, the “percentage of the dose collected at time 0 quantified in BAL after 24 h” value in series [4] (Swiss mice) came to 4.4%; in series [4] (β-ENaC mice), 3.3%. The “loss of hNE inhibitory capacity after nebulization, agitation or F/T cycles” value in series [5] was “the greatest losses were observed with nebulization and 4 h of agitation”.

B2: NbE201-PEG40: NbE201-Cter conjugated via C-terminal cysteine to branched 40 kDa PEG-maleimide (conjugate)
VHH: QVQLQESGGGLVQAGGSLRLSCVVPGRTISLYRMGWFRQAPGKEREFVAGINWSGDMTDYVDSVKGRFTISRDNAKNTVYLEMNSLKPEDTAIYYCTADPKLLPLADSSYGYWGQGTQVTVSSSPSTPPTPSPSTPPC
For B2, the “inhibitory capacity in COPD sputum” value in series [1] is given as “No apparent differences in inhibitory capacity”. Further, the “inhibitory capacity in ciliary dyskinesia sputum” value in series [2] was “No apparent differences in inhibitory capacity”. Moreover, the “sputum proteolytic activity inhibition at time 0, compared with NbE201” value in series [3] (exposure time 0) is reported as “No significant difference”. In addition, the “percentage of the dose collected at time 0 quantified in BAL after 24 h” value in series [4] (Swiss mice) is 65%; in series [4] (β-ENaC mice), 56%. Also, in series [5], the “loss of hNE inhibitory capacity after nebulization, agitation or F/T cycles” value is listed as “did not display any significant loss of inhibitory activity”.
